This note sets out measurements from the supplement of paper PMC9170038.

Data set [1] has as its system K4 kissing-loop RNA reporter. The data set is described as follows: apparent KD of K4 kissing-loop reporter; higher = weaker reporter binding. As to conditions: Eterna round: R107. As to the method:
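RNA-MaP round R107: designed RNA switches with theophylline, tryptophan, arginine or FMN aptamers are transcribed on-chip within common flanks. They are titrated with a labelled K4 kissing-loop RNA reporter in RNA-MaP buffer (100 mM Tris pH 7.5, 80 mM KCl, 4 mM MgCl2), without ligand or with the indicated ligand. Median apparent KD per design.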

The test system of the next data set is MS2 coat protein. The data set is described as follows: apparent KD of MS2 coat protein; designed switch direction (-1 OFF switch, 1 ON switch): -1; higher = weaker reporter binding. Summed up: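 Designed RNA switches with common flanks were transcribed on Illumina chips by stalled E. coli RNA polymerase and titrated with SNAP-549-labelled MS2 coat protein, from 0.7 or 1.5 nM doubling to 3 µM, in Tris-HCl pH 7.5 buffer with KCl, MgCl2, BSA, DTT, tRNA and Tween-20. Steps lasted 0.8–1.5 h (lowest) to 10–20 min (highest). Titrations ran without input, with 200 uM small-molecule ligand, or with an oligonucleotide input. Normalised cluster fluorescence was curve-fitted, and apparent KD is the per-design median over clusters.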

Setting [2] is: input ligand: theophylline 20 uM.
[3] abbreviates: input ligand: tryptophan 2.4 mM.
Setting [4] is: input ligand: microRNA oligo, concentration not stated.
Setting [5] is: Eterna round: R95, input ligand: FMN 200 uM.
[6] abbreviates: Eterna round: R95, input ligand: microRNA oligo, concentration not stated.
The mark [7] stands for this setting: Eterna round: R95, input ligand: none.
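Throughout, for apparent KD of K4 kissing-loop reporter: bound reporter read as fluorescence of individual clusters on recovered sequencing chips by microscopy, with normalized cluster intensities fitted with a binding model.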

“AACUGUCGAGGACAACAUUACUGAGGUGAUACCAGCAUCGAAAGAUGCCCUUGGCAGCACCAACUUGCAGUGAUGUUGCAAGUAA [BrourdMod 9 - Jieux - Exclusion - Theophylline A]”: the “apparent KD of K4 kissing-loop reporter” value in data set [1] (input ligand: FMN 200 uM) came to 356 nM; in data set [1] (input ligand: arginine 13.2 mM) it was 324 nM; in data set [1] (input ligand: none), 343 nM; in data set [1] (setting [2]), 473 nM; in data set [1] (setting [3]), 314 nM.
For “AAGCAGUCACGCGAAGCCAUCGAAGAUGGUCGAGGACCGGUACGGCCGCCACUCGGAGUGAUGUUCCGAAGACUGCAAAAUAAAA”, the “apparent KD of K4 kissing-loop reporter” value was found to be 326 nM in data set [1] (input ligand: FMN 200 uM); 270 nM in data set [1] (input ligand: arginine 13.2 mM); 333 nM in data set [1] (input ligand: none); 314 nM in data set [1] (setting [2]); 341 nM in data set [1] (setting [3]).
The corresponding values for “AAGCAGUCACUCGAAACCAUCGAAGAUGGUCGAGGACCGGUACGGCCGCCACUCGGAGUGAUGUUCCGAAGACUGCAAAAUAAAA [#SwitchBubble 10]” are 313 nM, 334 nM, 286 nM, 277 nM and 751 nM.
As for “AAGCAGUCACUCGAAUCCAUCGAAGAUGGACGAGGACCGGUACGGCCGCCACUCGGAGUGAUGUUCCGAAGACUGCAAAAUAAAA”, the “apparent KD of K4 kissing-loop reporter” value in data set [1] (input ligand: FMN 200 uM) worked out at 306 nM; in data set [1] (input ligand: arginine 13.2 mM), 246 nM; in data set [1] (input ligand: none) it was 342 nM; in data set [1] (setting [2]) it was 345 nM; in data set [1] (setting [3]), 482 nM.
On the same counts, the results for “AAGCAGUCACUCUAAGCCAUCGAAGAUGGUCGAGGACCGGUACGGCCGCCACUCGGAGUGAUGUUCCGAAGACUGCAAAAUAAAA” are 410 nM, 393 nM, 468 nM, 459 nM and 249 nM.
Consider “AAGCAGUCAGAGAGUGAUGUUCUCAAAUAACGAGGACCGGUACGGCCGCCACUCGAAGACUGCAAGUCCUACGAAAAGUAGGACA [Omei inspired 9]”, for which the “apparent KD of K4 kissing-loop reporter” value in data set [1] (input ligand: FMN 200 uM) came out at 78.7 nM; in data set [1] (input ligand: arginine 13.2 mM), 59.5 nM; in data set [1] (input ligand: none), 58.3 nM; in data set [1] (setting [2]) it was 136 nM; in data set [1] (setting [3]), 74.4 nM.
The corresponding values for “AAGCAGUCCCUUGUAGUCAUCGAAGAUGAACGAGGACCGGUACGGCCGCCACUCGGAGUGAUGUUCCGAAGGCUGCAAAAUAAAA [MatMod 19 - Jieux - Exclusion - Tryptophan A]” are 122 nM, 123 nM, 135 nM, 152 nM and 310 nM.
The corresponding values for “AAGGCCACGAGAAGGAGCGUGUUGUGGAGUGAUGUUCCAUUGUAGACCUAAGGUCUGCGAGCACAGGUAGGUCGCUCGUGGUCAA [whbob_SS_Arginine_B_2t150]” are 108 nM, 116 nM, 107 nM, 110 nM and 117 nM.
“AAGGUAAGUGCAUACAAAGUGAUGUUUUGUCGAGGACCGGUACGGCCGCCACUCGCCCAGUUAAGUGACCGACGUCAACGAAUAA [theeternabot_exclusion_KL_Trp_A_21]”: the “apparent KD of K4 kissing-loop reporter” value in data set [1] (input ligand: FMN 200 uM) came to 606 nM; in data set [1] (input ligand: arginine 13.2 mM), 552 nM; in data set [1] (input ligand: none), 582 nM; in data set [1] (setting [2]) it was 502 nM; in data set [1] (setting [3]), 498 nM.
On the same counts, the results for “AAGUAAUUAAUAAUUUAUAUAAGUUAAACAGAGGAUAUGCAUUAUUGCAGAAGGCUGAAUGCAGUGAUGUUGCAAUGAUUAUUUA [JR_SSFMNA_Sub001]” are 18.9 nM, 84.7 nM, 58.3 nM, 116 nM and 60.8 nM.
On the same counts, the results for “AAGUGAUGUUGUAGUGAUGUUGUGAUGUUGCAGGAUAUAUAGUGAUGUAGAAGGGUAAGUACUUAUUUUUUUUUUGAGUUAUGUU [crrczrmullin]” are 85.5 nM, 33 nM, 62.8 nM, 45.9 nM and 65.4 nM.
For “AAGUGAUGUUGUAGUGAUGUUGUGAUGUUGCAGGAUAUAUAGUGAUGUAGAAGGGUAUGUGCAGUUUUAUUUUUUGAGUGUUGAU [ttytmullin]”, the “apparent KD of K4 kissing-loop reporter” value in data set [1] (input ligand: FMN 200 uM) was 72.1 nM; in data set [1] (input ligand: arginine 13.2 mM), 31 nM; in data set [1] (input ligand: none) it was 54.8 nM; in data set [1] (setting [2]), 42.2 nM; in data set [1] (setting [3]), 58.1 nM.
For the sequence “AAGUGAUGUUGUAGUGAUGUUGUGAUGUUGCAGGAUAUAUAGUGAUGUAGAAGGGUAUGUUCAGUUUUUUUUUUUGAGUGUUGAU [szxmullin]”, the “apparent KD of K4 kissing-loop reporter” value in data set [1] (input ligand: FMN 200 uM) came to 84.3 nM; in data set [1] (input ligand: arginine 13.2 mM) it was 35.3 nM; in data set [1] (input ligand: none), 62.8 nM; in data set [1] (setting [2]), 47.6 nM; in data set [1] (setting [3]), 66.5 nM.
On to “UUUUUAUAUGAAGGAUAUACUUAACAUGAGGAUCACCCAUGUGGUGUUGUGAGUGAGUGAGUUUAGUAGAAGGUCAAUGAUUUA [JMF's solution 62] (Eterna round: R96, puzzle: Exclusion NG 2)”, for which the results for the “apparent KD of MS2 coat protein” value in the data set on MS2 coat protein (input ligand: FMN 200 uM), in the data set with MS2 coat protein (setting [4]) and in the data set on MS2 coat protein (input ligand: none) were 1210 nM, 414 nM and 354 nM, respectively.
Turning to “UUUUUAUAUGAAGGAUAUACUUAACAUGAGGAUCACCCAUGUGGUGUUGUGAGUGAGUGAGUUUAGUAGAAGGUCAAUUAUUUC [JMF's solution 17] (Eterna round: R96, puzzle: Exclusion NG 2)”, the “apparent KD of MS2 coat protein” value in the data set with MS2 coat protein (input ligand: FMN 200 uM) is 537 nM; in the data set on MS2 coat protein (setting [4]), 292 nM; in the data set with MS2 coat protein (input ligand: none), 549 nM.
As to “UUUUUCAGGCCAGAUCCUCACAUGAGGAUCACCCAUGUGCUCGUCUGUUUUCGCUCUGUCUUUUUUUUGGUGGUGCU [Level Boss var2-20] (puzzle: Sensor v3, turn-off variant 1)”, the “apparent KD of MS2 coat protein” value worked out at 177 nM with MS2 coat protein (setting [5]), 26.7 nM in the data set with MS2 coat protein (setting [6]) and 178 nM in the data set on MS2 coat protein (setting [7]).
The corresponding values for “UUUUUCGAACAAGCUUCGUACAUGAGGAUCACCCAUGUUUUUAGAUUUGAGUAGGUUUGUAUGGAAGUUCGUCUUAU [JR_SV3TOV1_Sub087] (puzzle: Sensor v3, turn-off variant 1)” are 32.3 nM, 159 nM and 34.3 nM.
With “UUUUUGUGAGGAUAUCAGUAGUAAAAAAAUAAAAUUACUACUGAGAAGGCACAUGAGGAUCACCCAUGUUCUUU [salish99_ex4_r3_012] (puzzle: Exclusion 4)”, the “apparent KD of MS2 coat protein” value in the data set on MS2 coat protein (setting [6]) was 18.4 nM.
Take “UUUUUUGUUUUUUUUACAAGCUUUUUGCUCGUCUUAUUAACAUGAGGAUCACCCAUGUCAAAGAGACCUCAUGUAUU [Sensor v3 - turn-off variant 2 - 1] (puzzle: Sensor v3, turn-off variant 2)”: the “apparent KD of MS2 coat protein” value in the data set on MS2 coat protein (setting [5]) turned out to be 91.2 nM; in the data set on MS2 coat protein (setting [6]), 15.7 nM; in the data set on MS2 coat protein (setting [7]), 207 nM.
For the sequence “UUUUUUUUGCUGGUUUUUUACAUGAGGAUCACCCAUGUCCUCUGCUUGUCUUGUGUUGUGCUGGUUUCUGGUGCGGC [Revision to "-18.4 -40.2 kcal, A 8%"by Sellena] (Eterna round: R97, puzzle: Sensor, turn-off variant 1)”, the “apparent KD of MS2 coat protein” value with MS2 coat protein (input ligand: FMN 200 uM) is 428 nM; with MS2 coat protein (input ligand: none) it was 1210 nM.
